Assay results as given in patent US20160368957A1.

Molecular target: recombinant human IL-17A (human) (UniProt Q16552)
Assay: cell-based or functional assay

Sequence of recombinant human IL-17A (human) (Q16552 20-155 limits assumed): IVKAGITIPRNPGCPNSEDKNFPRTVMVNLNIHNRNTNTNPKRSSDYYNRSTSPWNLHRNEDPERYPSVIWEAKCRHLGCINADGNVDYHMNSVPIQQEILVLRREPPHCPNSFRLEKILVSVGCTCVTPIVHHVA

IC50 of inhibition of IL-17A induced IL-6 production in NHDF cells (IL-17A 50 ng/ml): 1000 pM
IC50 value (nM), IL-6 production by NHDF cells with IL-17A (1 ng/ml) and TNF alpha: 0.61 nM
Substance: human IL-17A receptor-Fc chimera (R&D Systems) (from UniProt Q96F46 33-320) (Fc fusion)
